According to paper PMC5426085 (Frontiers in Microbiology, 2017):

Experiments:
[1] = target: FtsZ (SaFtsZ) (Staphylococcus aureus, UniProt P0A031); experiment: GTPase assay (phosphate release), […]° light scattering polymerization, TEM, far-UV CD with recombinant purified FtsZ; assay type: biochemical; conditions: read-out: % inhibition of GTPase at 8 μg/mL (~15 μM)
[2] = target: the molecule itself; experiment: 90° light scattering of polymerization; FtsZ 6 μM in 20 mM Tris pH 7.4, 0.01% Triton X-100; started with 20 mM KCl, 5 mM MgCl2, 1 mM GTP; 37°C; 600 nm; without and with compound 1 (1 to 6 μg/mL); self-assembly into polymers

## CN1/C(=C/c2cc(/C=C/c3ccc(O)cc3)[n+](C)c3ccccc23)Sc2ccccc21 [compound 1, 2-((E)-4-hydroxystyryl)-1-methyl-4-((Z)-(3-methylbenzo[d]thiazol-2(3H)-ylidene)methyl)quinolin-1-ium iodide]
[1]
  inhibition at 8 µg/mL: 58%

B1: Staphylococcus aureus FtsZ (natural protein, UniProt P0A031 1-390, looked up)
chain: MLEFEQGFNHLATLKVIGVGGGGNNAVNRMIDHGMNNVEFIAINTDGQALNLSKAESKIQIGEKLTRGLGAGANPEIGKKAAEESREQIEDAIQGADMVFVTSGMGGGTGTGAAPVVAKIAKEMGALTVGVVTRPFSFEGRKRQTQAAAGVEAMKAAVDTLIVIPNDRLLDIVDKSTPMMEAFKEADNVLRQGVQGISDLIAVSGEVNLDFADVKTIMSNQGSALMGIGVSSGENRAVEAAKKAISSPLLETSIVGAQGVLMNITGGESLSLFEAQEAADIVQDAADEDVNMIFGTVINPELQDEIVVTVIATGFDDKPTSHGRKSGSTGFGTSVNTSSNATSKDESFTSNSSNAQATDSVSERTHTTKEDDIPSFIRNREERRSRRTRR
notes: cell division protein FtsZ, Staphylococcus aureus; also called SaFtsZ; filamenting temperature-sensitive mutant Z; source: recombinant; cloned, overexpressed, and purified as described previously (Sun et al., 2014; Li et al., 2015)
[2]
  binding result: binds

B2: E. coli FtsZ (natural protein, UniProt P0A9A6 1-383, looked up)
chain: MFEPMELTNDAVIKVIGVGGGGGNAVEHMVRERIEGVEFFAVNTDAQALRKTAVGQTIQIGSGITKGLGAGANPEVGRNAADEDRDALRAALEGADMVFIAAGMGGGTGTGAAPVVAEVAKDLGILTVAVVTKPFNFEGKKRMAFAEQGITELSKHVDSLITIPNDKLLKVLGRGISLLDAFGAANDVLKGAVQGIAELITRPGLMNVDFADVRTVMSEMGYAMMGSGVASGEDRAEEAAEMAISSPLLEDIDLSGARGVLVNITAGFDLRLDEFETVGNTIRAFASDNATVVIGTSLDPDMNDELRVTVVATGIGMDKRPEITLVTNKQVQQPVMDRYQQHGMAPLTQEQKPVAKVVNDNAPQTAKEPDYLDIPAFLRKQAD
notes: cell division protein FtsZ, Escherichia coli; also called EcFtsZ; source: recombinant; cloned, overexpressed, and purified as described previously (Sun et al., 2014; Li et al., 2015)
[2]
  binding result: binds
